Results reported in patent publication US20250263504A1 (Takeda / Millennium, published 2025).
Where “and” joins values, the source holds several entries; their conditions need not be identical. Identical values can stand only once.

How the values were obtained:
plasma kallikrein (pKal) [1] = target: T1, plasma kallikrein (pKal) (UniProt P03952 20-390; P03952 391-638, limits assumed); assay: enzyme inhibition of human pKal: rate (F/s) against antibody concentration (0 to 10 nM), fit to the tight-binding equation printed in the panel; K is Ki,app. Columns are coefficient, std. error, t, P. The unit is taken from the concentration axis '[nM]' [CONT'D) B. (left panel]
T1 construct: the description speaks of human pKal; also called active pKal

plasma kallikrein (pKal) [2] = target: T1, plasma kallikrein (pKal); assay: enzyme inhibition, corrected Ki,app, control plate 1
plasma kallikrein (pKal) [3] = target: T1, plasma kallikrein (pKal); assay: pKal enzyme inhibition, Ki,app, control
plasma kallikrein (pKal) [4] = target: T1, plasma kallikrein (pKal); assay: enzyme inhibition, corrected Ki,app, control plate 2
plasma kallikrein (pKal) [5] = target: T1, plasma kallikrein (pKal); assay: enzyme inhibition of human pKal: rate (F/s) against antibody concentration (0 to 10 nM), fit to the tight-binding equation printed in the panel; K is Ki,app. Columns are coefficient, std. error, t, P. The unit is taken from the concentration axis '[nM]' [CONT'D) B. (right panel]
plasma kallikrein (pKal) [6] = target: T1, plasma kallikrein (pKal); assay: enzyme inhibition assay, apparent Ki
Factor XIIa (FXIIa) [7] = target: T2, Factor XIIa (FXIIa) (UniProt P00748 20-372; P00748 373-615, limits assumed); assay: enzyme inhibition assay, apparent Ki
T2 construct: the description speaks of human FXIIa; also called active Factor XII
T2 sequence (looked up) 1: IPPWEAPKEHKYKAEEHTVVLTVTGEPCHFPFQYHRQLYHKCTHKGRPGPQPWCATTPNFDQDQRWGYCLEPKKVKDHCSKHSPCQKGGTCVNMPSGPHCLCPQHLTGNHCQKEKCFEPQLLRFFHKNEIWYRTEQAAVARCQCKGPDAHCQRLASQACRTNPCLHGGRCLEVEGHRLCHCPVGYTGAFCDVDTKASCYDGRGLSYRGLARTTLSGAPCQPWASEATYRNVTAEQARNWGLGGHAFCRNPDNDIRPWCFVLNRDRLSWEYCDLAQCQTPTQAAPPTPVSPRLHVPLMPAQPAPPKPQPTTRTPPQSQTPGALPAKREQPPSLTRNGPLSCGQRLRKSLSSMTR
T2 sequence (looked up) 2: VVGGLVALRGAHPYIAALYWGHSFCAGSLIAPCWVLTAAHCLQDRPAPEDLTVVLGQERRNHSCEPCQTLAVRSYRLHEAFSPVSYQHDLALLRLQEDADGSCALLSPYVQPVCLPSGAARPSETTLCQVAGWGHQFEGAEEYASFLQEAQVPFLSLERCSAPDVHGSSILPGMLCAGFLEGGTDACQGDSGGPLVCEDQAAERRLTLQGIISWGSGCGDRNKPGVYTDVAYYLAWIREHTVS

Factor XIIa (FXIIa) [8] = target: T2, Factor XIIa (FXIIa); assay: enzyme inhibition: rate (F/s) against antibody concentration (0 to about 9000 pM), fit to the tight-binding inhibitor equation; K is Ki,app. FXIIa as the enzyme follows from the text; it is not printed in the panel [right panel]

T1 sequence (P03952 20-390 limits assumed, form in doubt, chain 1 of 2): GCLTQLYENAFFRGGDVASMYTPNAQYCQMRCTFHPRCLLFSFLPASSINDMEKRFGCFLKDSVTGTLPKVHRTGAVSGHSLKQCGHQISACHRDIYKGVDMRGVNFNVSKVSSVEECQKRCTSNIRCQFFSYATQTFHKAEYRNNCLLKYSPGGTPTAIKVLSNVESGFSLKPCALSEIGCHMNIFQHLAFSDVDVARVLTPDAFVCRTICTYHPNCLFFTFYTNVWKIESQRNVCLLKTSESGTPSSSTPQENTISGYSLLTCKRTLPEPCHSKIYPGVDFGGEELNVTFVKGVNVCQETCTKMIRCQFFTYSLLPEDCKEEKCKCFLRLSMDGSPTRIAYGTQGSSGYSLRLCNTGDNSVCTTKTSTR
T1 sequence (P03952 391-638 limits assumed, form in doubt, chain 2 of 2): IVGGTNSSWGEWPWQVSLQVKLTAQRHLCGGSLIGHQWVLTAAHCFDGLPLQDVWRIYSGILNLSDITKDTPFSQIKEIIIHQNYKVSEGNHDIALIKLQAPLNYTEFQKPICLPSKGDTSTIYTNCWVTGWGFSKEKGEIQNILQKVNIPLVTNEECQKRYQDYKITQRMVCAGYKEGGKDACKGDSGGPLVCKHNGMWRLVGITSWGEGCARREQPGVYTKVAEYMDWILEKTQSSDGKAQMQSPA

Binder | Ki (plasma kallikrein (pKal) [1]) | Ki (plasma kallikrein (pKal) [2]) | Ki (plasma kallikrein (pKal) [3]) | Ki (plasma kallikrein (pKal) [4]) | Ki (plasma kallikrein (pKal) [5]) | Ki (plasma kallikrein (pKal) [6]) | Ki (Factor XIIa (FXIIa) [7]) | Ki (Factor XIIa (FXIIa) [8])
DX-2930 (antibody, human IgG1, kappa, V domains shown, Anti-pKal IgG1; also called H03) VH: EVQLLESGGGLVQPGGSLRLSCAASGFTFSHYIMMWVRQAPGKGLEWVSGIYSSGGITVYADSVKGRFTISRDNSKNTLYLQMNSLRAEDTAVYYCAYRRIGVPRRDEFDIWGQGTMVTVSS VL: DIQMTQSPSTLSASVGDRVTITCRASQSISSWLAWYQQKPGKAPKLLIYKASTLESGVPSRFSGSGSGTEFTLTISSLQPDDFATYYCQQYNTYWTFGQGTKVEIKR | 0.202 nM | 0.16 nM | 0.127 nM and 0.131 nM and 0.151 nM | 0.138 nM | – | – | – | –
620I-X0177-A01 (bispecific antibody, human IgG1, kappa, 620I-X0136-D12 with germlined, gene-optimized scFv and VH44-VL100 disulfide; also called 620I-X0173-A11; 620I-X0136-D12 with H44/L100 engineered disulfide bond) heavy: not shown light: DIQMTQSPSTLSASVGDRVTITCRASQSISSWLAWYQQKPGKAPKLLIYKASTLESGVPSRFSGSGSGTEFTLTISSLQPDDFATYYCQQYNTYWTFGQGTKVEIKRTVAAPSVFIFPPSDEQLKSGTASVVCLLNNFYPREAKVQWKVDNALQSGNSQESVTEQDSKDSTYSLSSTLTLSKADYEKHKVYACEVTHQGLSSPVTKSFNRGEC | – | – | – | – | 0.39 nM | 0.389 nM | 0.073 nM | 0.0726 nM
